Source: patent publication US20240116984A1 (published 2024)
Starred links: 1 amine or outer side, 2 acyl side, 3 side chain; linkers in the order of their positions; H or OH if unused. Non-standard residues stand in square brackets, D forms with d. Primed or numbered codes have the meaning given here. aTyr = Tyr with backbone N-amino (N-aminated amide nitrogen), NN([C@@H](Cc1ccc(O[*:3])cc1)C(=O)[*:2])[*:1]; aIle′ = Ile with backbone N-amino (N-aminated amide nitrogen), CC[C@H](C)[C@@H](C(=O)[*:2])N(N)[*:1]; aVal = Val with backbone N-amino (N-aminated amide nitrogen), CC(C)[C@@H](C(=O)[*:2])N(N)[*:1]; N(NH2)Lys = NCCCC[C@H](NN)C(=O)O

B1: Compound 13, Ac-Val-Gln-Ile-aVal-Tyr-aLys-NH2 (peptide)
peptide: Ac-VQI[aVal]Y[N(NH2)Lys]-NH2
SMILES: CC[C@H](C)[C@H](NC(=O)[C@H](CCC(N)=O)NC(=O)[C@@H](NC(C)=O)C(C)C)C(=O)N(N)[C@H](C(=O)N[C@@H](Cc1ccc(O)cc1)C(=O)N(N)[C@@H](CCCCN)C(N)=O)C(C)C
B2: Compound 4, Ac-aVal-Gln-aIle-Ile-Asn-Lys-NH2 (peptide)
peptide: Ac-[aVal]Q[aIle′]INK-NH2
SMILES: CC[C@H](C)[C@H](NC(=O)[C@H]([C@@H](C)CC)N(N)C(=O)[C@H](CCC(N)=O)NC(=O)[C@H](C(C)C)N(N)C(C)=O)C(=O)N[C@@H](CC(N)=O)C(=O)N[C@@H](CCCCN)C(N)=O
B3: Compound 12, Ac-Val-Gln-aIle-Val-aTyr-Lys-NH2 (peptide)
peptide: Ac-VQ[aIle′]V[aTyr]K-NH2
SMILES: CC[C@H](C)[C@@H](C(=O)N[C@H](C(=O)N(N)[C@@H](Cc1ccc(O)cc1)C(=O)N[C@@H](CCCCN)C(N)=O)C(C)C)N(N)C(=O)[C@H](CCC(N)=O)NC(=O)[C@@H](NC(C)=O)C(C)C

Target: Human tauP301L (0N4R), recombinant, N-terminal His tag (UniProt P10636 2-758)
Sequence (P10636 other isoform, or with tags, fused parts or gaps): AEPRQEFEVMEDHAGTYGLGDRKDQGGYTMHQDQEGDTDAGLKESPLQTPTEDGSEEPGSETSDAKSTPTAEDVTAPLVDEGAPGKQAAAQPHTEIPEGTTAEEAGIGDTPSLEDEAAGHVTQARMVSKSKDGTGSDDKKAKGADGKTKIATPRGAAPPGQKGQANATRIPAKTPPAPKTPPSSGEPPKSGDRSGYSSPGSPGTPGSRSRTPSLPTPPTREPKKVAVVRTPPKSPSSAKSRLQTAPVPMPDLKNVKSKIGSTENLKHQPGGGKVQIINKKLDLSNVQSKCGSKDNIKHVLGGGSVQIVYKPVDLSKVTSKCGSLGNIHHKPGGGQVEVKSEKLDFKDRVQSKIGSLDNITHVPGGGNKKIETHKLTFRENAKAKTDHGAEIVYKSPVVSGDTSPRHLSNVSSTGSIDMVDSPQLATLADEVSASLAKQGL
Experiment: capping of pre-formed Tau P301L fibers, inhibition of seeding in HEK293 tau-RD-YFP cells

Row | Binder | IC50 [µM]
1 | B1 | 4.7
2 | B2 | > 20
3 | B3 | 4.8
